Test results from patent US20080234175, “Process for Designing Inhibitors of Influenza Virus Structural Protein 1” (published 2008).

B1: 16-bp dsRNA (RR) (dsRNA)
RNA 1: CCAUCCUCUACAGGCG
RNA 2: CGCCUGUAGAGGAUGG

How the values were obtained:
[1] = biological target: NS1A(1-73) RNA-binding domain of influenza A virus NS1 protein (Influenza A virus) (UniProt P03495); experiment: EMSA; settings: CITED Wang 1999; 10-fold higher affinity than for 55-bp dsRNA; cited from earlier work
[2] = biological target: NS1A(1-73) RNA-binding domain of influenza A virus NS1 protein (Influenza A virus, UniProt P03495 P03495:1-73); experiment: sedimentation equilibrium, 25 C, 1:1 dimer:duplex; summarized as ~1 uM; settings: tags: pET11a expression in E. coli BL21(DE3), no tag stated; chain copies: 2 (stated, homodimer); label: 5'-32P for gel shift; unlabeled otherwise
Sequence of NS1A(1-73) RNA-binding domain of influenza A virus NS1 protein (P03495 1-73, one chain of several): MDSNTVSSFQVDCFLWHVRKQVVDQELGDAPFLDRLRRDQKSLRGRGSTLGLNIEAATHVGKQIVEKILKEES

Sequence of NS1A(1-73) RNA-binding domain of influenza A virus NS1 protein (Influenza A virus) (P03495 1-73): as the sequence (P03495 1-73, one chain of several) above

Row | Molecule | binding signal [1] [fold] | Kd [2] [nM]
1 | 140-bp dsRNA | 10 | 
2 | B1 |  | 748
